Test results published in patent US20160251440A1 (Ablynx, published 2016).

T1: human IL-23R extracellular domain Fc-fusion (human, UniProt Q5VWK5 24-355)
T1 construct: extracellular domain; bought; also called IL-23R-Fc
T1 sequence (looked up): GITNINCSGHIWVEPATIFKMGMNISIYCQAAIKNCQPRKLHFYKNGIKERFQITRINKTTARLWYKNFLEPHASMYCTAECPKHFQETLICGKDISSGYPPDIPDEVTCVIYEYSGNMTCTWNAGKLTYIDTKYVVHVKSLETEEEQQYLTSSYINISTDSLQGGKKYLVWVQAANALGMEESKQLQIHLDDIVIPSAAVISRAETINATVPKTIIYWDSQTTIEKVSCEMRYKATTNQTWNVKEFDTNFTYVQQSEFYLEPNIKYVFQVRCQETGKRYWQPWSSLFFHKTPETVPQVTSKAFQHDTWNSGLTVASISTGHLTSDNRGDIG

T2: human IL-23R, cell-expressed (human, UniProt Q5VWK5 24-629)
T2 sequence (looked up): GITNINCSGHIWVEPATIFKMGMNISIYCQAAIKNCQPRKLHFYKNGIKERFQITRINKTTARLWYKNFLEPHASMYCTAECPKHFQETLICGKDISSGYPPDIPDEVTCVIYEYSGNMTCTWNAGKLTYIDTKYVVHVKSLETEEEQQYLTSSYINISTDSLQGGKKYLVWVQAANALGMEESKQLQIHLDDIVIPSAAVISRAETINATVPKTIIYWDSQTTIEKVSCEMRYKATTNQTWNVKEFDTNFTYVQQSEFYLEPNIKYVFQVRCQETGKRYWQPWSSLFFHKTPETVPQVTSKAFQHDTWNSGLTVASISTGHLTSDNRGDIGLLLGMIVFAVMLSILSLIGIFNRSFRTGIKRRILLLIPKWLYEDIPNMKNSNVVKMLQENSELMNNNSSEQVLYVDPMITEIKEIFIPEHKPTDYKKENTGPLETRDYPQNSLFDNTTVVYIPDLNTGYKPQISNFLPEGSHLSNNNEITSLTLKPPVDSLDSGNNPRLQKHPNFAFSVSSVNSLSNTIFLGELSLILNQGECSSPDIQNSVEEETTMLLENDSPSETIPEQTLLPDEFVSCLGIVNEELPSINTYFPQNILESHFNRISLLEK

T3: human IL12Rβ2, cell-expressed (human, UniProt Q99665 24-862)
T3 sequence (looked up): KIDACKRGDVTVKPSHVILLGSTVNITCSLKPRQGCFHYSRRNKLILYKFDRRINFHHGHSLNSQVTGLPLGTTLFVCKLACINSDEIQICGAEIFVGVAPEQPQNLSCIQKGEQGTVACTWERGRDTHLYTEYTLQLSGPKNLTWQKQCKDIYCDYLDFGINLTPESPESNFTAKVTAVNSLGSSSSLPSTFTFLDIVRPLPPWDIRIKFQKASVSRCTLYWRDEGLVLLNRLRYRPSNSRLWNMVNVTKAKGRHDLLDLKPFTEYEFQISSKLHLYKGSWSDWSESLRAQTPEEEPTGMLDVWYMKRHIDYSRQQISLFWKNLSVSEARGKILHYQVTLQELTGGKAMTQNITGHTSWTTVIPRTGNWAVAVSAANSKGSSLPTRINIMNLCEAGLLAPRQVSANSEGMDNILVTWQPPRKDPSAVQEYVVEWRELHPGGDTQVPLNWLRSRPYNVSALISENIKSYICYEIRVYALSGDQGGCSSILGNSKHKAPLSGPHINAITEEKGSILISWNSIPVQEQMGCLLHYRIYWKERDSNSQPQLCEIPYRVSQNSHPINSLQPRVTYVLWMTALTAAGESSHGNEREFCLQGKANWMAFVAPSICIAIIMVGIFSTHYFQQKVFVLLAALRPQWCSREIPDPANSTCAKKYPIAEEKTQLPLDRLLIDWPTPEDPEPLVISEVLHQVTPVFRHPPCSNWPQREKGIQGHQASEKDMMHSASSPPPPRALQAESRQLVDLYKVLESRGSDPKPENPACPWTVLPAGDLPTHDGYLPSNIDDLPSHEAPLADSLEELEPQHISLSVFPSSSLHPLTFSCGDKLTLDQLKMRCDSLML

T4: human IL12Rβ2 extracellular domain Fc-fusion (human, UniProt Q99665 24-622)
T4 construct: extracellular domain; bought; also called IL12Rβ2-Fc; hIL-12Rβ2-Fc
T4 sequence (looked up): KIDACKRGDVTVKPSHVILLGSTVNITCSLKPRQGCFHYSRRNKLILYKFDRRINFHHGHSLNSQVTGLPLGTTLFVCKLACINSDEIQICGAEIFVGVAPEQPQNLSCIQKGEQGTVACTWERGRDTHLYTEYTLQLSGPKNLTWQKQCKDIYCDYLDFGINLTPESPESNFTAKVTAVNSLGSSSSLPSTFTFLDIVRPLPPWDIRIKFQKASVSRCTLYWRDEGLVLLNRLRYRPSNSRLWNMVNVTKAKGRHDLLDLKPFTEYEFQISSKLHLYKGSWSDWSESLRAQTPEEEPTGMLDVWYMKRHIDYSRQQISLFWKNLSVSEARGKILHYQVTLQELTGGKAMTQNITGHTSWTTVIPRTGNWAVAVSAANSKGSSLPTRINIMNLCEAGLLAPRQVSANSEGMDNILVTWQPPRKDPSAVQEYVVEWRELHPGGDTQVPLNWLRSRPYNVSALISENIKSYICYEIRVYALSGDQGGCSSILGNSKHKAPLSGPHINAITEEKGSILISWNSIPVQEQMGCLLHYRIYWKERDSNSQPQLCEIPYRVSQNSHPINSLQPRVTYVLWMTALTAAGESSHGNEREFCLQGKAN


Columns and labels:
[1] = biological target: T1, human IL-23R extracellular domain …; test: competition ELISA, ratio to monovalent IL23R#20
[2] = biological target: T5, human CD4, cell-expressed (human, UniProt P01730 26-458); test: flow cytometry on MOLM-13 cells (CD4, no IL12R or IL23R), upper right panel
T5 construct: whole, on cells

[3] = biological target: T2, human IL-23R, cell-expressed; test: cell-based or functional assay
[4] = biological target: T1, human IL-23R extracellular domain …; test: competition ELISA, coated IL-23 + IL-23R-Fc
[5] = biological target: T5, human CD4, cell-expressed; test: flow cytometry on activated T cells of donor D838 (very high CD4), lower left panel
[6] = biological target: T5, human CD4, cell-expressed; test: flow cytometry on MOLM-13 cells (CD4, no IL12R or IL23R), upper left panel
[7] = biological target: T3, human IL12Rβ2, cell-expressed; test: cell-based or functional assay
[8] = biological target: T4, human IL12Rβ2 extracellular domain …; test: competition ELISA, ratio to monovalent IL12Rb2#2
[9] = biological target: T5, human CD4, cell-expressed; test: flow cytometry on activated T cells of donor D838 (very high CD4, moderate IL12R), upper left panel
[10] = biological target: T4, human IL12Rβ2 extracellular domain …; test: competition ELISA, coated IL-12 + IL12Rβ2-Fc
[11] = biological target: T1, human IL-23R extracellular domain …; test: competition ELISA, ratio to monovalent IL23R#19
[12] = biological target: T6, human IL12Rβ1, cell-expressed (human, UniProt P42701 24-662); test: flow cytometry on isolated CD8+ T cells of donor D863, anti-Flag detection
T6 construct: whole, on cells; in the context of the heterodimeric receptor; also called IL12Rb1

Row | fold ctrl [1] [fold] | EC50 (read off the curve) [2] [nM] | IC50, IL-17 release, PBMC D840 [3] [nM] | IC50 [4] [nM] | EC50 (read off the curve) [5] [nM] | EC50 (read off the curve) [6] [nM] | IC50, IFNγ release, PBMC D840 [7] [nM] | IC50, IFNγ release, T cells D839 [7] [nM] | fold ctrl, IFNγ release, PBMC D840 [7] [fold] | fold ctrl, IFNγ release, T cells D839 [7] [fold] | fold ctrl [8] [fold] | EC50 (read off the curve) [9] [nM] | IC50 [10] [nM] | fold ctrl [11] [fold] | fold ctrl, IL-17 release [3] [fold] | binding result [12] | Binder
1 | 1.1 | ~1 | 22 | 15 | ~1 | – | – | – | – | – | – | – | – | – | – | – | CD4#8-35GS-IL23R#20 (bispecific antibody, also called BI#44; T023200044) EVQLVESGGGSVQPGGSLTLSCGTSGRTFNVMGWFRQAPGKEREFVAAVRWSSTGIYYTQYADSVKSRFTISRDNAKNTVYLEMNSLKPEDTAVYYCAADTYNSNPARWDGYDFRGQGTLVTVSSGGGGSGGGGSGGGGSGGGGSGGGGSGGGGSGGGGSEVQLVESGGGLVQAGGSLRLSCAASGRTFSSYAMGWFRQAPGKDREFVAAISWIGESTYYADSVKGRFTISRDNAKNTVYLRMNSLKPEDTAVYYCAADLYYTAYVAAADEYDYWGQGTLVTVSS
2 | 1.5 | ~1 | – | 11 | ~1 | – | – | – | – | – | – | – | – | – | – | – | IL23R#20-35GS-CD4#8 (bispecific antibody, also called BI#43; T023200043) EVQLVESGGGLVQAGGSLRLSCAASGRTFSSYAMGWFRQAPGKDREFVAAISWIGESTYYADSVKGRFTISRDNAKNTVYLRMNSLKPEDTAVYYCAADLYYTAYVAAADEYDYWGQGTLVTVSSGGGGSGGGGSGGGGSGGGGSGGGGSGGGGSGGGGSEVQLVESGGGSVQPGGSLTLSCGTSGRTFNVMGWFRQAPGKEREFVAAVRWSSTGIYYTQYADSVKSRFTISRDNAKNTVYLEMNSLKPEDTAVYYCAADTYNSNPARWDGYDFRGQGTLVTVSS
3 | – | – | – | – | – | ~1 | 1.6 | 0.031 | 30 | 1130 | 1.4 | ~1 | 11 | – | – | – | IL12Rb2#2-35GS-CD4#8 (bispecific antibody, defined by its make-up) EVQLVESGGRLVQAGDSLRLSCAASGRTFTSYRMGWFRQAPGKEREFVSALRWSSGNIDYTYYADSVKGRFSISGDYAKNTVYLQMNSLKAEDTAVYYCAASTRWGVMESDTEYTSWGQGTLVTVSSGGGGSGGGGSGGGGSGGGGSGGGGSGGGGSGGGGSEVQLVESGGGSVQPGGSLTLSCGTSGRTFNVMGWFRQAPGKEREFVAAVRWSSTGIYYTQYADSVKSRFTISRDNAKNTVYLEMNSLKPEDTAVYYCAADTYNSNPARWDGYDFRGQGTLVTVSS
4 | – | – | – | – | – | ~1 | 2.1 | 0.76 | 8 | 130 | 0.6 | ~1 | 25 | – | – | – | CD4#8-35GS-IL12Rb2#2 (bispecific antibody, defined by its make-up) EVQLVESGGGSVQPGGSLTLSCGTSGRTFNVMGWFRQAPGKEREFVAAVRWSSTGIYYTQYADSVKSRFTISRDNAKNTVYLEMNSLKPEDTAVYYCAADTYNSNPARWDGYDFRGQGTLVTVSSGGGGSGGGGSGGGGSGGGGSGGGGSGGGGSGGGGSEVQLVESGGRLVQAGDSLRLSCAASGRTFTSYRMGWFRQAPGKEREFVSALRWSSGNIDYTYYADSVKGRFSISGDYAKNTVYLQMNSLKAEDTAVYYCAASTRWGVMESDTEYTSWGQGTLVTVSS
5 | – | ~1 | 24.2 | 6.6 | ~1 | – | – | – | – | – | – | – | – | 0.3 | 4.1 | – | CD4#8-35GS-IL23R#19 (bispecific antibody, also called BI#45; T023200045) EVQLVESGGGSVQPGGSLTLSCGTSGRTFNVMGWFRQAPGKEREFVAAVRWSSTGIYYTQYADSVKSRFTISRDNAKNTVYLEMNSLKPEDTAVYYCAADTYNSNPARWDGYDFRGQGTLVTVSSGGGGSGGGGSGGGGSGGGGSGGGGSGGGGSGGGGSEVQLVESGGGLVQPGGSLTLSCVASGRTFSTDVMGWFRQAPGKEREFVAAHRTSGISTVYAASVKGRFTISRDNAKNTVYLGMKSLKPEDTAVYVCAAGSDASGGYDYWGQGTLVTVSS
6 | – | ~4 | – | 6.1 | ~1 | – | – | – | – | – | – | – | – | 0.3 | – | no binding (tested: 250 nM) | IL23R#19-35GS-CD4#8 (bispecific antibody, also called BI#42; T023200042) EVQLVESGGGLVQPGGSLTLSCVASGRTFSTDVMGWFRQAPGKEREFVAAHRTSGISTVYAASVKGRFTISRDNAKNTVYLGMKSLKPEDTAVYVCAAGSDASGGYDYWGQGTLVTVSSGGGGSGGGGSGGGGSGGGGSGGGGSGGGGSGGGGSEVQLVESGGGSVQPGGSLTLSCGTSGRTFNVMGWFRQAPGKEREFVAAVRWSSTGIYYTQYADSVKSRFTISRDNAKNTVYLEMNSLKPEDTAVYYCAADTYNSNPARWDGYDFRGQGTLVTVSS
